Experiment: yeast display, Sf9 membrane polyspecificity reagent, FACS + sequencing; frameworks hold sequencing errors
Summary of the method: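 Polyreactivity labels are assigned by the sorting gate from which each nanobody was recovered. The gates were low and high (top ~1%), set on anti-HA fluorescence for expression and streptavidin fluorescence for reagent binding. Before sorting, galactose-induced (36–48 hours) yeast display cells were stained for 1 hour at 4 °C with 10% biotinylated, detergent-solubilized Sf9 membrane reagent.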

QVQLVESGGGVVQAGGSLRLSGAASGSTLLRNAMGWYRQAPGKAWELVAVITYSGGSTYYADSVKGRFTISRDQAKNTVYLQMNSLIPEDTAVYYCAADKWYYVRYATDAYSKFDYWGQGTQVTVSS
polyreactivity (PSR sort gate): low polyreactivity

QVQLVESGGGLVQAGGSLRLSCAASGRIFGVYAMGLYRQAPGKERELVAGITYSGGSTYYADSVKGRFTISRDNAKNTVYLQMNSLKPEDTAVYYCARYHWYYRVSKSDSWGQGTQVTVSS
polyreactivity (PSR sort gate): high polyreactivity

QVQLVESGGGLVQAGGSLRLSCAASGSILTWYPMGWYRQAPRKERELVAAITRGGSTYADSVKGRFTISRDNAKNTVYLQMNILKPEDTAVYYCKAVYGVYVFNYWGQGTQVSVSS
polyreactivity (PSR sort gate): low polyreactivity

QVQLVESGGGLVQAGGSLRISCAASGLTFYRYAMGWYRQAPGKERELVAAIRVSGNTYYADSVKGRFTISRDNAKNTVYLEMNSLKPEDTAVYYFAAKPYYFYGMDYWGQGTQVTVSS
polyreactivity (PSR sort gate): high polyreactivity

QVQLVESGGGLVQAGGSLRLSCAASGFTFTTNAMGWYRQAPGKERELVAAISFSGGTTYYADSVKGRFTISRDNAKNTVYLQMNSLKPEDTAVYYCPAQPGQAWWSTEHDDYWGQGTQVTVSS
polyreactivity (PSR sort gate): low polyreactivity

QVQLVESGGGLVQAGGSLRLSCAASGRTFYAYAMGWYRQAPGKERELVAVITRSGGRTNYADSVKGRFTISRDNAKNTVYLQMNSLKPEDTAVYYCAARADWRQVSFYYWGQGTQVTVSS
polyreactivity (PSR sort gate): high polyreactivity

QVQLVESGGGLVQAGGSLRLSCAASGSTFEEYAMGWYRKAPGKERELVAGITWGGGSTYYADSVKGRFTISRDNAKNTVYLQMNSLKPEDTAVYYCVFAFEYYYWGQGTQVTVSS
polyreactivity (PSR sort gate): low polyreactivity

QVQLVESGGGLVQAGGSLRLSCAASGSIFYPYAMGWYRQAPGKERELVAAIRFSGGRTYYADSVKGRFTISRDNAKNTVYLQMNSLKPEDTAVYYCAAEYYGIYSPYDYWGQGTQVTVSS
polyreactivity (PSR sort gate): high polyreactivity

QVQLVESGGGLVQAGGSLRLSCAASGRTFSGYVMGWYRQAPGKERELVATINGSGASTYYADSVKGRFTISRDNAKNTVYLQMNSLKPEDTAVYYCNKYPAHYQTRRYDYWGQGTQVTVSS
polyreactivity (PSR sort gate): high polyreactivity

QVQLVESGGGLVQAGGSLRLSCAASGFIFRYYAMGWYRQAPGKERELVATISSGGGTHYADSVKGRFTISRDNAKNTVYLQMNCLKPEDTAVYYCNKVSYRRRSVLLHYDYWGQGTQVTVSS
polyreactivity (PSR sort gate): high polyreactivity

QVQLVESGGGLVQAGGSLRLSCAASGSIFLSNAMGWSRQAPGKERELVADIDWTGGDTYYADSVKGRFTISRDNAKNTVYLQMNSLKPEDTAVYYCAADYGYRNLLTEYGYWGQGTQVTVSS
polyreactivity (PSR sort gate): low polyreactivity

QVQLVESGGGLVQAGGSLRLSCAASGRTFWYYAMGWYRQAPGKEREFVAAISWSGGSTYYADSVKGRFTISRDNAKNTVYLQMNTLKPEDSAVYYCAASPVWWYDYWGQGTQVTVSS
polyreactivity (PSR sort gate): low polyreactivity

QVQLVESGGGLVQAGGSLRLSCAASGRIFRYYAMGWYRQAPGKERELVARITSGGSTYYADSVKGRFTLSRDNAKNTVYLQMNSLKPEDTAVYYCAAETTRWHPWYDYWGQGTQVTVSS
polyreactivity (PSR sort gate): high polyreactivity

QVQLVESGGGLVQAGGSLRLSCAASGRIFVYNAMGWYRQAPGKERELVAGINGSGGSTYYAASVKGRFRISRDHAKNSVYLQMNSLKPEDTAGYYCNAWISYGYFIFDYWGQGTQVTVSS
polyreactivity (PSR sort gate): high polyreactivity

QVQLVESGGGLVQAGGSLRLSCAASGRIFAYYVMGWYRQGPGKERELVASISSGGGTYYADSVKGRFTISRDNAKNTVYLQMNSLKPEDTAVYYCAARWRRYVYPDGHLFWYDYWGQGTQVTVSS
polyreactivity (PSR sort gate): high polyreactivity

QVQLVESGGGLVQAGGSLRLSCAASGFIFQTNVMGWYRQAPGKERELVAAISSGDSTYYADSVKGRFTISRDNAKNTVYLQMNSLKPEDTAVYYCAADVLGTTTTVGGFNYWGQGTQVTVSS
polyreactivity (PSR sort gate): low polyreactivity

QVQLVESGGGLVQAGGSLRLSCDASGRIFLHYAMRLYRQAPGTERELVAAISRSGGSTYYADSVKGRFTISRDNAKNTVYLQMNSLKPEDTAVYYCAADGPGDYLTLEWYWFTYYYWGQGTQVTVSS
polyreactivity (PSR sort gate): high polyreactivity

QVQLVESGGGLVQAGGSLRLSCAASGSIFYLYAMGWYRPAPGKERELVAAISRSGASTYYADSVKGRFTISRDNAKNTVYLQMNSLKPEDTAVYYCAAYKIWGRVRYDYWGQGTQVTVSS
polyreactivity (PSR sort gate): low polyreactivity

QVQLVESGGGLVQAGGSLRLSCAASGRIFPFYDMGWYRQAPGKERELVAAISTSGGSTYYADSVKGRFTISRDNAKNTVYLQMNSLKPEDTAVYYCNAQRALRSTYDSWGQGTQVTVSS
polyreactivity (PSR sort gate): low polyreactivity

QVQLVESGGGLVQAGGSLRLSCAASGSTFDYNAMGWYRQAPGKERELVADITGSGASTSYADSVKGRFTISRDNAKNTVYLQMNSLKPEDTAVYYCAATGYSSWTYYTHEYWGQGTQVTVSS
polyreactivity (PSR sort gate): low polyreactivity

QVQLVDSGGGLVQGGGSLRLSCAASGRTFGIYPMRWYRPAPGKERELVAAISRRGTSTYYADTVKGRFTISRDNAKNTVYLQLNSLKPEDTAVYYCATVGATVDNRDDYWGQGTQVTVSS
polyreactivity (PSR sort gate): high polyreactivity

QVQLGESGGGLVQAGGSLRLSCAASGSTFNENAMGWYRQAPGKERELVAAISNDGSTTYADSVKGRFTISRDNAKNTVYLQMNSLKPEDTALYYCNAVSYIDTQSSLGDSWGQGTQVTVSS
polyreactivity (PSR sort gate): low polyreactivity

QVQLVESGGGLVQAGGSLRLSCAASGRIFNRYAMGWYRQAPGKEREFVARITGSGGRTYYADSVKGRFTISRDNAKNTVYLQMNSLKPEDTAVYYCARDRGYQSGYDYWGQGTQVTVSS
polyreactivity (PSR sort gate): high polyreactivity

QVQLVESGGGLVQAGGSLRLSCAASGSIFSGNAMGWYRQAPGKERELVAAISRNGGSTYYADSVKGRFTISRDNAMNTVYLQMISLKPEDTAVYYCAASWYRRKIYYSWGQGTQVTVSS
polyreactivity (PSR sort gate): high polyreactivity

QVQLVESGGGLVQAGGSLRLSCAASGNIFLSYAMGWYRQAPGKERELVAGISASGGRTYYADSVKGRFTISRDNAKNTVYLQMNSLKPEDTAVYYCATRNTRFHLDYWGQGTQVNVSS
polyreactivity (PSR sort gate): high polyreactivity

QVQLVESGGGLVQAGGSLRLSCAASGSIFPVYAMGWYRQAPGKEREFVARIRFSGGRTYYADSVKGRFTISRDNAKNTVYLQMNSLKPEDTAVYYCAKAQYRGRYGYWGQGTQVTVSS
polyreactivity (PSR sort gate): high polyreactivity

QVQLVESGGGLVQAGGSLRLSCAASGSIFPLNAMGWYRQSPGKERELVATISWRGGITYYADSVKGRFTISRDNAKNTVYLQMNSLKPEDTAVYYCATVGRWNSLWYRYRYDYWGQGTQVTVSS
polyreactivity (PSR sort gate): low polyreactivity

QVQLVESGGGLVQAGGSLRLSCAASGRTFGLYAMRWYIQAPGKERELVAAIRGSAGSTYYADSVKGRFTISRDNAKNTVYLQMNSLKPEDTAVYYCATGGYPSLWYGYGYWGQGTQVTVSS
polyreactivity (PSR sort gate): low polyreactivity

QVQLVESGGGLVQAGGSLRISCAASGFTFWYYVMGWYRQAPGKERELVAAISSGGSTYYADSVKGRFTISRDNAKNTVYLQINSLKPEDTAVYYCAASYRSATRQFDYWGQGTQVTVSS
polyreactivity (PSR sort gate): low polyreactivity

QVQLVESGGGLVQAGGSLRLSCAASGRTLGHNAMGWYRQAPGKERELVAAITSRGGTTYADSVKGRFTISRDNAKNTVYLQMNSLKPEDTAVYYCAARGYAYSRYYYWGQGTQVTVSS
polyreactivity (PSR sort gate): high polyreactivity

QVQLVESGGGLVQAGGSLRLSCAASGSTSAPNAMGWYRQAPGKERELVAAISWTGGSTSYADSVKGRFTISRDNAKNTVYLQMNSLKPPDTAVYYCAKRSYGLTRAYSAGNYWGQGTQVTVSS
polyreactivity (PSR sort gate): low polyreactivity

QVQLVETGGGLVQSGGSLRLSCAASGSTFTYYAMGWYRQAPGKERELVAAIDFSGTSTYYADSVKGRFTISRDNAKNTVYLQMNCLKPEDTAVYFCAASQSLYWGGAHDNGEFGYWGQGTQVTVSS
polyreactivity (PSR sort gate): low polyreactivity

QVQLVESGGGLVQAGGSLRLSCAASGFTFRLYVMGWYIQAPGKERELVAAISSRGGSTYYADSLKGRFTISRDNAKNTVNLQMNSLKPEDTAVYYCAADRPRGRETVDYWGQGTQVTVSS
polyreactivity (PSR sort gate): high polyreactivity

QVQLVESGGGLVQAGGSLRLSCAASGRIFYTNAMGWYRQAPGKERELVATISLRGGSTYYADSVKGRFTISRDNAKNTVYLQLNSLKPEDTAVYDCAARFWSVYSGNPTYPKYYWGQGTQVTVSS
polyreactivity (PSR sort gate): high polyreactivity

QVQLVESGGGLVQAGGSLRLSCAASGRIFQAYAMGWYRQAPGKERELVAAISRSGGGTYYADSVKGRFTISRDNAKNTVYLQMNSLKPEDTAVYYCNARGSTARGRGYWGQGTQVTVSS
polyreactivity (PSR sort gate): high polyreactivity

QVQLVESGGGLVQAGGSLRLSCAASGRIFGGNAMGWYRQAPGKERELVAAISKRGGSTYYADSVKWRFTISRDNAKNTVYLQMNILKPEDTAVYYCAATAYADQGLDYGYWGQGTQVTVSS
polyreactivity (PSR sort gate): high polyreactivity

QVQLVESGGGLVQAGGSLRLSCAASGSTFYRNAMGWYRQAPGKEREFVADITLGGGSTYYADSVKGRFTISRDNAKNTVYLQMNSLTPEDTAVYYCAVVYWQLNYDYWGQGTQVTVSS
polyreactivity (PSR sort gate): low polyreactivity

QVQLEESGGCLVQAGGSLRLSCAATGITFYLYAMGWYRHAPGKERELVAAINSGGSTSYADSVKGRFTISRDNAKNTVYLQMNSLKTEDTADYYCNKLFLKFWGHQYGYWGQGTQVTVSS
polyreactivity (PSR sort gate): high polyreactivity

QVQLVESGGGLVQAGGSLRLSCAASGIIFYGYAMGWYRQAPGKERELVAAIDSGVSTNYADSVKGRFTISRDNAKNTVYLQMNSLKPEDTAVYYCAVQPWTRDNGYDYWGQGTQVTVSS
polyreactivity (PSR sort gate): low polyreactivity

QVQLVESGGGLVQAGGTLRLSCAASGSIFYRYDMGWYRPAPGKERELVAAITWSGGSTYYADSVKGRFTISRDNAKNTVYLQMNSLKPEDTAVYYCNAPGDGYLYDHTYDYWGQGTQVTVSS
polyreactivity (PSR sort gate): low polyreactivity

QVQLVESGGGLVQAGGSLRLSCAASGSIFPFNAMGWYRQAPGKERELVAAISRRGTGTYYADSVKGRFTISRDNAKNTVYLQMNSLKPEDTAVYYCNAVVRAGHYDYWGQGTQVTLSS
polyreactivity (PSR sort gate): high polyreactivity

QVQLVESGAGLVQAGGSLRLSCAPSGRIFEYNAMGWYRQAPGKESELVAAIRSGGGSTYYADSVKGRFTISRDNAKNTVYLQMNSLNPEDTAVYYCAARRKRVSFYAEYDYWGQGTQVTVSS
polyreactivity (PSR sort gate): low polyreactivity

QVQLVESGGGLVQAGGSLRLSCAASGSTFGSYAMGWYRQAPGKERELVAAITQIGGSTYYADSVKGRFTISRDKAKNTVYLQMNSLKPEDTAVYYCAARYRYPGYYYWGQGTQVTVSS
polyreactivity (PSR sort gate): high polyreactivity

Source: the nanobody polyreactivity screen of Harvey et al. (2022)
